Entries after “also recorded” stand apart in the source; their conditions may differ.
Legend:
RN2 (AML) cells = experiment: Competitive proliferation assay; assay type: cell-based, mouse; details: monitored for 8 days, no endogenous target gene
Protocol: (§1) The 3 best-performing ARTi-shRNAmirs were analyzed for their effects on proliferation of diverse mouse cell lines originating from different tissues. This experimental step monitors potential off-target effects. Should an off-target, relevant to the proliferative capacity be knocked down, a decrease in cellular fitness would be expected. NIH 3T3 (embryonic fibroblasts), EPP2 (PDAC) and RN2 (AML) cells were transduced with ARTi-shRNAs or validated control shRNAs. Subsequently, the percentage of shRNA expressing cells was monitored via flow cytometry in regular intervals for 8 days in competitive co-culture assays. For competitive proliferation assays, NIH 3T3, EPP2 and RN2 cells were retrovirally transduced with shRNAmir expression plasmids and initial infection levels were determined by flow cytometry based on mCherry expression 4 days post transduction (Day 0). The percentage of infected cells was then further monitored in regular intervals to determine the effects of shRNA expression in the absence of an endogenous target gene for the ARTi-shRNAmirs.

[1] = system: NIH 3T3, EPP2 and RN2 cells; experiment: Competitive proliferation assays, result stated for all cell lines together; assay type: cell-based, mouse; details: all tested cell lines, competitive co-culture
Protocol: as §1

[2] = system: NIH 3T3, EPP2 and MR125 cells; experiment: Transcriptional profiling (QuantSeq) for off-target effects; assay type: cell-based, mouse; details: cells expressing ARTi-shRNAs vs empty vector control, no target gene expression
Protocol: To directly quantify off-target effects of the top 3 ARTi-shRNAs, transcriptome profiling in NIH 3T3, EPP2 and MR125 cells expressing ARTi-shRNAs or empty vector control was performed. For the unbiased identification of ARTi shRNA off-targets NIH-3T3, EPP2 and MR125 cells were retrovirally transduced with shRNAmir expression plasmids and selected for shRNA expression using G418 Sulfate (0.5 mg/mL for EPP2 and NIH 3T3 and 1 mg/mL for MR125, respectively; Gibco). 1.5×106 (NIH 3T3 and EPP2) or 2×106 (MR125) cells were pelleted, washed with PBS, lysed, treated with DNAse I and whole RNA was extracted using magnetic beads (in-house) and a KingFisher Duo Prime Purification System (ThermoFisher). Next generation sequencing libraries were prepared using QuantSeq 3′ mRNA-Seq Library Prep Kit (Lexogen) according to manufacturer's instructions and sequenced on a HiSeq2500 platform (Illumina).
RefSeq genes and 3′-UTR annotations were prepared from the UCSC table browser (https://genome.ucsc.edu/cgi-bin/hgTables, May 2016). […] Reads were aligned to the GRCm38 primary assembly using Slamdunk v0.2.410 in QuantSeq mode (slamdunk map-5 12-n 100-q) and alignments were filtered to recover multimappers with the acquired 3′-UTR set (slamdunk filter-b). Reads were quantified against said 3′-UTR annotation using featureCounts v1.5.0-p211 using stranded counting and counting multimapping reads (−M ˜s 1). […]

EGFR^del19::dsRed::ARTi = experiment: Western blot of doxycycline induced knockdown in PC-9 cells; assay type: cell-based; details: endogenous EGFR knocked out, doxycycline induced expression
Protocol: The EGFR^del19::Linker::dsRed::ARTi construct was transduced into EGFR^del19dependent PC-9 cells. The endogenous EGFR gene was then knocked out using CRISPR/Cas9, making the PC-9 cells dependent on EGFR^del19::dsRed::ARTi. PC-9 cell pellets for different genetic backgrounds and treatments were lysed in triton lysis buffer, sonicated, and stored at −80° C. until for protein detection, the pellets were thawed on ice, followed by 15 minutes centrifugation at 13,000 rpm at 4° C. Then, cell lysates were loaded onto a 12% pre-casted SDS-polyacrylamide gel electrophoresis and proteins were transferred onto a nitrocellulose membrane and PDVF-membrane, respectively. Both membranes were probed with the respective primary antibodies overnight. The next day, the secondary antibodies conjugated with fluorescent dye were added and the proteins were detected by the Odyssey detection system.

Molecule	growth compared to non-transduced cells in competitive co-culture (RN2 (AML) cells)	growth compared to non-transduced cells in competitive co-culture (RN2 (AML) cells; listed as ARTi.6634)	percentage of shRNA expressing cells over time / toxicity [1]	transcriptional effects / responses (principal component analysis) [2]	EGFR^del19::dsRed::ARTi protein levels (EGFR^del19::dsRed::ARTi)
ARTi-shRNA 6634: ARTi-shRNAmir, antisense RNA UUCGAUUAAAACAUCAUCCGGA (SEQ ID NO: 10), 97 mer SEQ ID NO: 22 (nucleic acid) UGCUGUUGACAGUGAGCGCCCGGAUGAUGUUUUAAUCGAAUAGUGAAGCCACAGAUGUAUUCGAUUAAAACAUCAUCCGGAUGCCUACUGCCUCGGA	growth disadvantage; also recorded: adverse effect	considerable growth disadvantage	–	–	–
ARTi-shRNA 6570: ARTi-shRNAmir, antisense RNA UUCGAUAACAAUAUCAUCCGGA (SEQ ID NO: 6), 97 mer SEQ ID NO: 18 (nucleic acid) UGCUGUUGACAGUGAGCGCCCGGAUGAUAUUGUUAUCGAAUAGUGAAGCCACAGAUGUAUUCGAUAACAAUAUCAUCCGGAUGCCUACUGCCUCGGA	–	–	no considerable toxicity	only mild transcriptional responses	reduction
ARTi-shRNA 6786: ARTi-shRNAmir, antisense RNA UUCGUAUACAAUAUCAUCCGGA (SEQ ID NO: 12), 97 mer SEQ ID NO: 24 (nucleic acid) UGCUGUUGACAGUGAGCGCCCGGAUGAUAUUGUAUACGAAUAGUGAAGCCACAGAUGUAUUCGUAUACAAUAUCAUCCGGAUGCCUACUGCCUCGGA	–	–	no considerable toxicity	only mild transcriptional responses	–
